Measured values taken from publication PMC12505970.

Target: FLAG-AuxB^W86A (S. aureus) (S. aureus)
Assay: co-IP; FLAG-tagged bait from S. aureus membranes solubilised in 1% DDM (PBS pH 7.4, NaCl), α-FLAG M2 magnetic beads at 4°C, washes with decreasing DDM, elution with 3×FLAG peptide; Coomassie-stained gel, bands identified by LC-MS

Question: “PknB (endogenous, S. aureus) (from UniProt A0A0H2XGG5 1-664) (natural protein)” was tested. Which ratio of PknB pulled down, AuxB^W86A against wild type (densitometry) did it give?
Answer: 4.2

Question: And the ratio of PknB pulled down, AuxB^W86A against wild type (peptide counts of PknB in the total eluate)?
Answer: 5
